Data published in patent US20090088386A1 (KAGOSHIMA UNIVERSITY, published 2009).
No end group written: not given here.

Legend:
[1] = biological target: T1, pepB7-C15 (pepD1-C5, C7, C20) peptide phage clone; assay: biopanning on coated B7 scFv; no ELISA figure is given for B7
T1 construct: also called pepD1-C7; pepD1-C20; not shown: phage gene III protein of the Ph.D.-C7C library phage (New England Biolabs)
T1 peptide: CYGTKPWMC

[2] = biological target: T2, pepB6-L1 peptide phage clone (not fully specified (C-terminus)); assay: phage ELISA, scFv coated on plate, phage detected with anti-M13 antibody
T2 construct: not shown: phage gene III protein of the Ph.D.-12 library phage (New England Biolabs)
T2 peptide: GMLDIFAPIRHV

[3] = biological target: T3, pepB6-L10 peptide phage clone (not fully specified (C-terminus)); assay: as above
T3 construct: not shown: phage gene III protein of the Ph.D.-12 library phage (New England Biolabs)
T3 peptide: TSPILDVLTPPR

[4] = biological target: T4, pepD1-L20 peptide phage clone; assay: as above
T4 construct: not shown: phage gene III protein of the Ph.D.-12 library phage (New England Biolabs)
T4 peptide: NPLDFYAPSILP

[5] = biological target: T1, pepB7-C15 (pepD1-C5, C7, C20) peptide …; assay: as above
Method: An ELISA plate was coated with scFv used as a template in the panning or with control scFv in an amount of 50 ng/40 μl/well (0.1 M NaHCO₃, pH 8.6) at 4° C. for 6 hours. Each well was blocked with 0.5% gelatin at 4° C. for 13 hours. Each well was washed with 0.2% PBST three times and then reacted at room temperature for 1 hour by the addition of the isolated peptide phage clone solution (approximately 1.6×10¹¹ virions/40 μl). After reaction with 40 μl of biotinylated anti-M13 monoclonal antibodies (diluted 1000 folds) and a streptavidin-alkaline phosphatase conjugate (diluted 1000 folds), bound phages were detected using substrate p-nitrophenyl phosphate.
The experiment was conducted according to the procedures described in the paragraph (5) ELISA. […] The experiment was conducted according to the procedures described in the paragraph (5) ELISA. […] The experiment was conducted according to the procedures described in the paragraph (5) ELISA.

[6] = biological target: T5, pepD1-C2, C13 peptide phage clone; assay: as above
T5 construct: also called pepD1-C13; not shown: phage gene III protein of the Ph.D.-C7C library phage (New England Biolabs)
T5 peptide: CYGTEPWMC

[7] = biological target: T6, pepD1-C18 peptide phage clone; assay: as above
T6 construct: not shown: phage gene III protein of the Ph.D.-C7C library phage (New England Biolabs)
T6 peptide: CFGHEPWMC

[8] = biological target: T7, pepD1-C3 peptide phage clone; assay: as above
T7 construct: not shown: phage gene III protein of the Ph.D.-C7C library phage (New England Biolabs)
T7 peptide: CQGHLPWMC

[9] = biological target: T8, pepD1-C11 peptide phage clone; assay: as above
T8 construct: not shown: phage gene III protein of the Ph.D.-C7C library phage (New England Biolabs)
T8 peptide: CFGHKPWMC

[10] = biological target: T9, pepD1-C8 peptide phage clone; assay: as above
T9 construct: not shown: phage gene III protein of the Ph.D.-C7C library phage (New England Biolabs)
T9 peptide: CFGRLPWMC

[11] = biological target: T10, pepD1-C10 peptide phage clone; assay: as above
T10 construct: not shown: phage gene III protein of the Ph.D.-C7C library phage (New England Biolabs)
T10 peptide: CFGSLPWMC

[12] = biological target: T11, pepD1-L5, L9 peptide phage clone; assay: as above
T11 construct: also called pepD1-L9; not shown: phage gene III protein of the Ph.D.-12 library phage (New England Biolabs)
T11 peptide: GSPFLDLLAPAA

[13] = biological target: T12, pepD1-L6 peptide phage clone; assay: as above
T12 construct: not shown: phage gene III protein of the Ph.D.-12 library phage (New England Biolabs)
T12 peptide: SSIIDILLPPIY

[14] = biological target: T13, pepD1-L7 peptide phage clone; assay: as above
T13 construct: not shown: phage gene III protein of the Ph.D.-12 library phage (New England Biolabs)
T13 peptide: SILDILSPRLAE

[15] = biological target: T14, pepD1-L13 peptide phage clone; assay: as above
T14 construct: not shown: phage gene III protein of the Ph.D.-12 library phage (New England Biolabs)
T14 peptide: GNTLLDTLVPLI

amyloid β peptide 1-42 = biological target: T15, amyloid β peptide 1-42 (UniProt P05067 672-713); assay: precipitation of Aβ oligomer and fibers with streptavidin-magnet beads, Western blot with anti-Aβ antibodies
T15 construct: domain: Aβ1-42; In the precipitation experiment it stood as oligomer and fibers formed 1.5 hours after dissolution at 40 µM; also called Aβ1-42; Aβ oligomer
T15 sequence (P05067 672-713 limits assumed): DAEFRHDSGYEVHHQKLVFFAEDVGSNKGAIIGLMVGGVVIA
Method: Aβ1-42 was dissolved at a concentration of 40 μM in 20 mM phosphate buffer, pH 7.0. […] After reaction, an aliquot thereof was sampled as a sample before immunoprecipitation (“Before precipitation”), and the remaining sample was reacted with M-280 streptavidin-magnet beads (Dynal Biotech, Oslo, Norway) adjusted to 20 μg/μl on ice for 1 hour at a ratio of 1:1 by liquid volume (final concentration: Aβ [10 μM]/synthesized peptide [10 μM]/beads [10 μg/μl]). After reaction, the beads were precipitated using a magnet to obtain “Supernatant”. To the precipitated beads, PBS was added in a liquid volume equal to the collected supernatant to obtain “Pellet”. Each obtained sample was electrophoresed and subjected to Western blot analysis using anti-Aβ antibodies.
Aβ1-42 was dissolved at a concentration of 40 μM in 20 mM phosphate buffer, pH 7.0.

B1: B7 scFv (clone B7 described in WO 2005/105998) (scFv, V domains shown)
VH: QVQLVQSGGGLVQPGGSQRLSCAASGFGFSNYAVSWVRQAPGTGLEWVAGVNGGGQNTFYADSVKGRFTISRDNSKKTVYLQMNSLRVEDTAIYYCAKDGRFRNRRPDGFDTWGQGTLVTVSS
VL: SSELTQDPNVSVALGQTVRITCQGDTLRNNFPTWYQQKPGQAPVLVFYGKDNRPSGIPDRFSGSRSGTTASLVITGAQAQDEADYYCNSRDSGGHHLVFGGGTKLTVLG
notes: Human single-chain antibody
- binding result [1]: binds

B2: B6 scFv (clone B6 described in WO 2005/105998) (scFv, V domains shown)
VH: QVQLVQSGGGVVQPGGSLRLSCAASGFTFSRYAMSWVRQAPGKGLEWVSAMSGSGDTTYYADSVKGRFTISRDNSKKTVYLQMNRLRVEDTAIYYCAKDGRFRNRRSDGFDTWGQGTLVTVSS
VL: SSELTQDPAVSVALGQTVRITCQGDSLRSYYASWYQQKPGQAPVLVIYGKDNRPSGIPDRFSGSSSGNAASLTITGAQAEDEADYYCNSRDTSGNHLVFGGGTKVTVLG
notes: Human single-chain antibody
- binding result [2]: binds
- binding result [3]: binds

B3: D1 scFv (clone D1 described in WO 2005/105998) (scFv, V domains shown)
VH: QVTLKESGGDLVKPGGSLRLSCAASGFTFRKYYMAWIRQAPGKGPEWLSTISNSGDIIDYADSVRGRFSISRDNAQKSLYLQMTSLRPDDSAIYYCAREYFFSFDVWGRGTLVTVSS
VL: SSELTQDPAVSVALGQTIRITCQGDSLRSYYASWYQQKPGQAPVLVIYGKNKRPSGIPDRISGSRSGNTASLTITGAQAEDEADYYCNSRDSSGNHLVFGGGTQLTVLG
notes: Human single-chain antibody
- binding result [4]: binds
- binding result [5]: binds
- binding result [6]: binds
- binding result [7]: binds
- binding result [8]: binds
- binding result [9]: binds
- binding result [10]: binds
- binding result [11]: binds
- binding result [12]: binds
- binding result [13]: binds
- binding result [14]: binds
- binding result [15]: binds

Binder: GSGGGSCGYWRSEWGLCG (also called unrelated peptide) [unrelated control peptide (GSGGGSCGYWRSEWGLCG)]
- binding result (amyloid β peptide 1-42): no binding
